From the Immune Epitope Database (IEDB)

Target: HLA-A*02:01
Assay: IEDB peptide-MHC binding, purified MHC/competitive/radioactivity; ≥ and ≤ were set here for values at or beyond the usual limits of such assays
Conditions: source organism: Vaccinia virus WR

Row | Sequence | IC50 [nM]
1 | VLVDNVDFAT | 16
2 | RVIGLCIRI | 17
3 | YLPKQPEGV | 1.2
4 | MMCYFLTATL | 18
5 | VMNNLSELTA | 453
6 | SLNLTIVSV | 26
7 | NLFTFLHEI | 1.1
8 | NIIDWQFAI | 5.4
9 | GMANTTFHV | 0.41
10 | FIDSYLQKL | 24
11 | ILVCYILYI | 19
12 | VILSPPINA | 872
13 | LIVLFEVFVV | 2070
14 | LVDICDRIV | 2140
15 | GLDVKNVQL | 278
16 | LTDKKTFII | 881
17 | RIDMIDNLNI | 2550
18 | ILSLFLISLV | 2.9
19 | MVNTVLITV | 121
20 | AVLLTYFCFV | 3.4
21 | KLDYWSFQL | 2.1
22 | YLVDVETIGV | 0.17
23 | STIDGRIVTL | 736
24 | IILVIIVVI | 418
25 | WLTSILLSL | 1.2

Row | Sequence | IC50 [nM]
26 | TAKSSFVCGI | 1130
27 | RTNEEFDPV | 140
28 | YIIKKNDIV | 2000
29 | LLSAINFKI | 0.54
30 | MQRIISLSV | 454
31 | EILGIAHLL | 4330
32 | ALIANIHNHM | 118
33 | FIIEVSNCV | 13
34 | HLGYIIRYPV | 12
35 | HLNPSRIRI | 956
36 | NTFYLFTFTI | 55
37 | IVLYNGVNYL | 225
38 | LVDNVDFAT | 461
39 | IIAIVFVFI | 241
40 | FLDNECHTI | 0.78
41 | ELYNKPLYEV | 0.79
42 | FVFRSPFIV | 4.6
43 | TINNLKMML | 193
44 | ELIAFSSGTV | 997
45 | FTSSFYNYV | 0.46
46 | RLNPEVSYFT | 128
47 | LQYDLWNVV | 22
48 | TISVVTLLCV | 3420
49 | LIVLFEVFV | 1930
50 | TLDTAIFTDA | 50

Row | Sequence | IC50 [nM]
51 | CMSANEAAI | 16
52 | CTANSWNVI | 794
53 | HIFYQLANV | 5.8
54 | ETYHLIDYET | 3180
55 | FIADIGIGV | 0.3
56 | LMYDIINSV | 1.8
57 | FLCLLMKLSI | 2.1
58 | ILPVIFLSI | 0.66
59 | VMAYVGIKL | 1300
60 | FTLIDIWFL | 0.49
61 | VVVPIKFIA | 2840
62 | VIGLCIRISM | 735
63 | KQDISLKRNA | 778
64 | ILYMVVDGSV | 107
65 | SQYYFSMLV | 13
66 | KLNGAMVEYV | 6.1
67 | ILRKIFYSV | 126
68 | VTINNLKMML | 3060
69 | MLNFSIYSV | 0.15
70 | IMEYHLLFA | 13
71 | YQYIFLSFFA | 19
72 | LLYAHINAL | 8.3
73 | KLYLVDYGLV | 20
74 | FLYNVYPGA | 1.3
75 | LMSTLLIYL | 0.13

Row | Sequence | IC50 [nM]
76 | ILTREMGFLV | 7
77 | LQKFSFKIA | 4660
78 | ALTNAQFFV | 1.3
79 | ELIKELTTL | 134
80 | LLIHFLLSL | 17
81 | PIKFIAEFLV | 4460
82 | LITMLSIIL | 115
83 | FLKIKVTAA | 52
84 | VMISILNPV | 33
85 | FLHESDPMVI | 1.1
86 | AMFTTMYNI | 2.8
87 | YLTVSFIDET | 4780
88 | NIVIFVKRL | 1280
89 | FICWHSSEI | 53
90 | KLGNLLLLI | 0.43
91 | NLLLWPLYV | 0.12
92 | YITALNHLVL | 280
93 | YINTHNEVGI | 1640
94 | LLMMTLPSI | 0.11
95 | LAERFCTEV | 234
96 | GLFIYIPGT | 19
97 | LLEAVYGNI | 864
98 | KLLLWFNYL | 2
99 | ALFGIKLPAL | 2.5
100 | QLYLTVSFI | 3280

Row | Sequence | IC50 [nM]
101 | AMTAFFGEL | 50
102 | NIWAIIPLSA | 87
103 | RVFNEYGFV | 190
104 | RTLLGLILFV | 20
105 | PAVVYSTCTV | 2310
106 | YLFNAIETM | 1.5
107 | TLWAIINTI | 9.4
108 | QAIMESDSFL | 67
109 | NLVKWPLLNI | 146
110 | TMSAFLIVRL | 448
111 | YQLFSDAKA | 1790
112 | KLTDSLSSQM | 935
113 | FTDASTVASA | 793
114 | PITDSLSFKL | 2660
115 | NLPEDIKRV | 151
116 | IMLEGETKL | 6.7
117 | VLYDEFKCFI | 5.9
118 | IAMENLKAML | 674
119 | FQYVSYSNFI | 1450
120 | LITWLIDYV | 71
121 | YLDDHRYLFI | 12
122 | ALAKNASEL | 73
123 | KLSCAVHLI | 3.2

Target: HLA-A*02:02
Assay: as above
Conditions: source organism: Hepatitis B virus

Row | Sequence | IC50 [nM]
124 | GLSPTVWLSV | 23

Target: HLA-A*02:03
Assay: as above
Conditions: source organism: Hepatitis B virus

Row | Sequence | IC50 [nM]
125 | SILSPFLPLL | 16
126 | SLNFLGGTTV | 0.67
